Test results published in patent publication US20170008971A1.

What was measured:
[1] = biological target: CD3 on Jurkat cells (human) (UniProt P07766); assay: binding to Jurkat cells (data not shown; Scatchard assay presumed)
[2] = biological target: human epidermal growth factor receptor 2 (HER2) on cells (human) (UniProt P04626); assay: competitive Scatchard analysis, 125I-trastuzumab Fab tracer on SKBR-3 cells

Kd [1]: 4.7 nM
Kd [2]: 5.4 nM
Substance: HER2 T cell dependent bispecific antibody (HER2-TDB), huIgG1, knob arm humanized anti-HER2 4D5 (trastuzumab), hole arm humanized anti-CD3 UCHT1.v9
